For the experiment, the target named is T1, PG I蛋白(fitzgerald，30R-AP038) (UniProt P0DJD8 16-388).
T1 construct: Commercial antigen; Pepsinogen I is a group of isozymogens (PGA3/PGA4/PGA5); also called 胃蛋白酶原I; HPG I
Nature of the experiment: BLI, AMC sensors, antibody captured at 10 μg/mL, PG I protein in serial dilution in PBST. (In BLI a coated tip is dipped into the sample, and binding shifts an interference pattern.)

T1 sequence (P0DJD8 16-388): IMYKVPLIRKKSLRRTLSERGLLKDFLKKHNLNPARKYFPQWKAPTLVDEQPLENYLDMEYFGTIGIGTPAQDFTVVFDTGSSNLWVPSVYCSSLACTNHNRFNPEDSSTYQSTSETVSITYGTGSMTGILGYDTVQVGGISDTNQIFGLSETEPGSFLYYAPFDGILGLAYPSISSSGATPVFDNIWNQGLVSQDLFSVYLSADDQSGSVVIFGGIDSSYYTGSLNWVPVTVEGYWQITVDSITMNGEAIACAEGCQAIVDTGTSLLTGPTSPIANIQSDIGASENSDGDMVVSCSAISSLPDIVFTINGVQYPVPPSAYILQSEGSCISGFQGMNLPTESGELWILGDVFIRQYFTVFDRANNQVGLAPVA

Take 对照抗体 (antibody): the dissociation constant Kd (commonly the free concentration of one partner at which half of the binding sites on the other are occupied at equilibrium, for simple one-to-one binding) is 0.297 nM; the dissociation rate constant (koff) (in general, the rate constant with which the complex falls apart) turned out to be 0.000273 s⁻¹; the kon (as a rule, the second-order rate constant of association) was determined as 919000 M⁻¹ s⁻¹.

B1: Anti-HPG I 8C20单克隆抗体 (antibody, V domains shown)
VH: QVQLQQPGAELVRPGASVKLSCKASDYTFTSYWMNWVKQRPEQGLEWIGRIDPYDSETHYNQKFKDKAILTVDKSSSTAYMQLSSLTSEDSAVYYCARFSMVVAVYAMDYWGQGTSVTVSS
VL: DIQMTQSPASLSASVGETVTITCRASGNIHNYLAWFQQKQGKSPQILVYYAKTLADGVPSRFSGSGSGTQFSLKINSLQPEDFGSYYCQHFWSTPWTFGGGTKLEIK
B1 showed a Kd of 0.0309 nM, a koff of 2.85e-05 s⁻¹ and an on-rate constant (kon) of 921000 M⁻¹ s⁻¹.
